Measurements published in patent US10745460B2, “Peptides and combination of peptides for use in immunotherapy against various tumors” (Immatics Biotechnologies GmbH, priority 2015, dated 2020).

What follows are substances tested against HLA-A*02:01 (Homo sapiens, UniProt P04439, D140Y/D185E/D98H/E176V/E277Q/G131W/G231S/I119V/I121R/I166T/I218V/L300P/L318F/N151K/N90K/P208A/P217A/Q86G/Q94H/R138H/R169H/T345S) (assay: MHC binding assay: UV-ligand exchange with β2m ELISA (peptide exchange yield)). Conditions: binding to HLA-A*02:01 evaluated by peptide exchange yield (UV-ligand exchange, β2m ELISA).
Source text: Candidate peptides for T cell based therapies according to the present invention were further tested for their MHC binding capacity (affinity). The individual peptide-MHC complexes were produced by UV-ligand exchange, where a UV-sensitive peptide is cleaved upon UV-irradiation, and exchanged with the peptide of interest as analyzed. Only peptide candidates that can effectively bind and stabilize the peptide-receptive MHC molecules prevent dissociation of the MHC complexes. To determine the yield of the exchange reaction, an ELISA was performed based on the detection of the light chain (β2m) of stabilized MHC complexes. The assay was performed as generally described in Rodenko et al. (Rodenko et al., 2006).
96 well MAXISorp plates (NUNC) were coated over night with 2 ug/ml streptavidin in PBS at room temperature, washed 4× and blocked for 1 h at 37° C. in 2% BSA containing blocking buffer. Refolded HLA-A*02:01/MLA-001 monomers served as standards, covering the range of 15-500 ng/ml. Peptide-MHC monomers of the UV-exchange reaction were diluted 100 fold in blocking buffer. Samples were incubated for 1 h at 37° C., washed four times, incubated with 2 ug/ml HRP conjugated anti-β2m for 1 h at 37° C., washed again and detected with TMB solution that is stopped with […]. Absorption was measured at 450 nm. Candidate peptides that show a high exchange yield (preferably higher than 50%, most preferred higher than 75%) are generally preferred for a generation and production of antibodies or fragments thereof, and/or T cell receptors or fragments thereof, as they show sufficient avidity to the MHC molecules and prevent dissociation of the MHC complexes.

Substance | Peptide exchange
1 (KLQEKIQEL; listed as Homo sapiens) [compound 1] | ++++ (≥75% = ++++)
3 (RVIDDSLVVGV; listed as Homo sapiens) [compound 3] | +++ (≥50 = +++)
4 (VLFGELPAL; listed as Homo sapiens) [compound 4] | +++ (≥50 = +++)
5 (GLVDIMVHL; listed as Homo sapiens) [compound 5] | +++ (≥50 = +++)
6 (FLNAIETAL; listed as Homo sapiens) [compound 6] | ++++ (≥75% = ++++)
7 (ALLQALMEL; listed as Homo sapiens) [compound 7] | +++ (≥50 = +++)
9 (SLITGQDLLSV; listed as Homo sapiens) [compound 9] | +++ (≥50 = +++)
10 (QLIEKNWLL; listed as Homo sapiens) [compound 10] | +++ (≥50 = +++)
11 (LLDPKTIFL; listed as Homo sapiens) [compound 11] | +++ (≥50 = +++)
12 (RLLDPKTIFL; listed as Homo sapiens) [compound 12] | +++ (≥50 = +++)
13 (RLHDENILL; listed as Homo sapiens) [compound 13] | +++ (≥50 = +++)
14 (YTFSGDVQL; listed as Homo sapiens) [compound 14] | +++ (≥50 = +++)
16 (SLADLSLLL; listed as Homo sapiens) [compound 16] | +++ (≥50 = +++)
17 (GLLPSAESIKL; listed as Homo sapiens) [compound 17] | ++++ (≥75% = ++++)
18 (KTASINQNV; listed as Homo sapiens) [compound 18] | ++ (≥20% = ++)
19 (KVFELDLVTL; listed as Homo sapiens) [compound 19] | ++ (≥20% = ++)

Substance | Peptide exchange
20 (ALVEKGEFAL; listed as Homo sapiens) [compound 20] | ++ (≥20% = ++)
21 (YLMDDFSSL; listed as Homo sapiens) [compound 21] | +++ (≥50 = +++)
22 (LMYPYIYHV; listed as Homo sapiens) [compound 22] | +++ (≥50 = +++)
23 (ALLSPLSLA; listed as Homo sapiens) [compound 23] | +++ (≥50 = +++)
24 (KVWSDVTPL; listed as Homo sapiens) [compound 24] | +++ (≥50 = +++)
25 (LLWGHPRVALA; listed as Homo sapiens) [compound 25] | +++ (≥50 = +++)
26 (VLDGKVAVV; listed as Homo sapiens) [compound 26] | +++ (≥50 = +++)
27 (GLLGKVTSV; listed as Homo sapiens) [compound 27] | +++ (≥50 = +++)
28 (IKVTDPQLLEL; listed as Homo sapiens) [compound 28] | ++ (≥20% = ++)
29 (KMISAIPTL; listed as Homo sapiens) [compound 29] | ++ (≥20% = ++)
30 (IITEVITRL; listed as Homo sapiens) [compound 30] | +++ (≥50 = +++)
31 (GLLETTGLLAT; listed as Homo sapiens) [compound 31] | +++ (≥50 = +++)
33 (TLDRNSLYV; listed as Homo sapiens) [compound 33] | ++ (≥20% = ++)
34 (TLNTLDINL; listed as Homo sapiens) [compound 34] | +++ (≥50 = +++)
35 (VIIKGLEEI; listed as Homo sapiens) [compound 35] | ++ (≥20% = ++)

Now from value to substance:

Peptide exchange | Substance
+++ (≥50 = +++) | 36 (TVLQELINV; listed as Homo sapiens) [compound 36]
++ (≥20% = ++) | 37 (QIVELIEKI; listed as Homo sapiens) [compound 37]
++ (≥20% = ++) | 38 (VLQQESNFL; listed as Homo sapiens) [compound 38]
+++ (≥50 = +++) | 39 (YLEDGFAYV; listed as Homo sapiens) [compound 39]
+++ (≥50 = +++) | 40 (KIWEELSVLEV; listed as Homo sapiens) [compound 40]
+++ (≥50 = +++) | 41 (IVTEIISEI; listed as Homo sapiens) [compound 41]
++ (≥20% = ++) | 42 (KQMSISTGL; listed as Homo sapiens) [compound 42]
+++ (≥50 = +++) | 44 (AVFNLVHVV; listed as Homo sapiens) [compound 44]
+++ (≥50 = +++) | 45 (FLPVSVVYV; listed as Homo sapiens) [compound 45]
+++ (≥50 = +++) | 47 (GLNGFNVLL; listed as Homo sapiens) [compound 47]
+++ (≥50 = +++) | 48 (KISDFGLATV; listed as Homo sapiens) [compound 48]
++ (≥20% = ++) | 49 (KLIGNIHGNEV; listed as Homo sapiens) [compound 49]
+++ (≥50 = +++) | 50 (ILLSVLHQL; listed as Homo sapiens) [compound 50]
++ (≥20% = ++) | 51 (LDSEALLTL; listed as Homo sapiens) [compound 51]
++ (≥20% = ++) | 52 (TIGIPFPNV; listed as Homo sapiens) [compound 52]
+ (≥10% = +) | 53 (AQHLSTLLL; listed as Homo sapiens) [compound 53]
+++ (≥50 = +++) | 54 (YLVPGLVAA; listed as Homo sapiens) [compound 54]
+++ (≥50 = +++) | 55 (HLFDKIIKI; listed as Homo sapiens) [compound 55]
++ (≥20% = ++) | 57 (TLYPGRFDYV; listed as Homo sapiens) [compound 57]
+++ (≥50 = +++) | 58 (HLLGEGAFAQV; listed as Homo sapiens) [compound 58]
+++ (≥50 = +++) | 59 (ALADGIKSFLL; listed as Homo sapiens) [compound 59]
+++ (≥50 = +++) | 60 (YLFSQGLQGL; listed as Homo sapiens) [compound 60]

Peptide exchange | Substance
+++ (≥50 = +++) | 61 (ALYPKEITL; listed as Homo sapiens) [compound 61]
+++ (≥50 = +++) | 62 (SLVENIHVL; listed as Homo sapiens) [compound 62]
+++ (≥50 = +++) | 63 (KLLPMVIQL; listed as Homo sapiens) [compound 63]
++ (≥20% = ++) | 64 (SLYAGSNNQV; listed as Homo sapiens) [compound 64]
++ (≥20% = ++) | 65 (SLSEKSPEV; listed as Homo sapiens) [compound 65]
++ (≥20% = ++) | 66 (AMFPDTIPRV; listed as Homo sapiens) [compound 66]
+++ (≥50 = +++) | 67 (FLIENLLAA; listed as Homo sapiens) [compound 67]
+++ (≥50 = +++) | 68 (QLMNLIRSV; listed as Homo sapiens) [compound 68]
++ (≥20% = ++) | 69 (LKVLKADVVL; listed as Homo sapiens) [compound 69]
++ (≥20% = ++) | 70 (GLTEKTVLV; listed as Homo sapiens) [compound 70]
++ (≥20% = ++) | 71 (HMSGKLTNV; listed as Homo sapiens) [compound 71]
++ (≥20% = ++) | 72 (VLSTRVTNV; listed as Homo sapiens) [compound 72]
++ (≥20% = ++) | 74 (GLAFLPASV; listed as Homo sapiens) [compound 74]
+++ (≥50 = +++) | 75 (ALLDGALQL; listed as Homo sapiens) [compound 75]
+++ (≥50 = +++) | 76 (FTAEFLEKV; listed as Homo sapiens) [compound 76]
+++ (≥50 = +++) | 77 (ALYGNVQQV; listed as Homo sapiens) [compound 77]
++ (≥20% = ++) | 79 (TVLEEIGNRV; listed as Homo sapiens) [compound 79]
+++ (≥50 = +++) | 80 (VLTGQVHEL; listed as Homo sapiens) [compound 80]
++ (≥20% = ++) | 81 (ILAEEPIYI; listed as Homo sapiens) [compound 81]
+++ (≥50 = +++) | 82 (ILAEEPIYIRV; listed as Homo sapiens) [compound 82]
++ (≥20% = ++) | 83 (GLLENSPHL; listed as Homo sapiens) [compound 83]
